Measured values reported in US20250152729A1 (CANCER RESEARCH TECHNOLOGY, published 2025).

T1: cynomolgus SEMA4A expressed on expi293 cells (UniProt ID G7NV79) (cynomolgus, UniProt Q9H3S1 33-761 (human entry))
T1 construct: Transient transfection in expi293 cells; also called cyno SEMA4A
T1 chain: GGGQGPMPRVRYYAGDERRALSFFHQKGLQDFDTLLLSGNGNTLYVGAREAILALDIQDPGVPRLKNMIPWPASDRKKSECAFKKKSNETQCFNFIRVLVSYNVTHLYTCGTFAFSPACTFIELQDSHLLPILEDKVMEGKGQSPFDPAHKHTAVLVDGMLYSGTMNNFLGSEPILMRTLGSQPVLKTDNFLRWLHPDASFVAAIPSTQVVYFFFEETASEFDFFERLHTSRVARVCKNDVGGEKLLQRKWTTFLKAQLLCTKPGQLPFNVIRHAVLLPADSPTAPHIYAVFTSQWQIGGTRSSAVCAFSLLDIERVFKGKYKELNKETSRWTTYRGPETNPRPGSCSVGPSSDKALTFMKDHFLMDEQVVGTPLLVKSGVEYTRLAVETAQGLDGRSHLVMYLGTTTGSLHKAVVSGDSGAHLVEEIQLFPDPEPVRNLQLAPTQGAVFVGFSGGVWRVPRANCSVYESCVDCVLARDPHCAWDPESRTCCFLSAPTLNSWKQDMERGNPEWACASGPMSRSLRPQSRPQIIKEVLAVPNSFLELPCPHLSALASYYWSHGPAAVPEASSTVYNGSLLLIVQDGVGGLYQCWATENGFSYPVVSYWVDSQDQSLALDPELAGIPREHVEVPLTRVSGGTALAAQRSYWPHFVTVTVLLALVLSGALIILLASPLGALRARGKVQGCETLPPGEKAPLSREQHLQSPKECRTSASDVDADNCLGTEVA

T2: human SEMA4B expressed on expi293 cells (human, UniProt Q9NPR2 44-837)
T2 construct: whole, on cells
T2 sequence (looked up): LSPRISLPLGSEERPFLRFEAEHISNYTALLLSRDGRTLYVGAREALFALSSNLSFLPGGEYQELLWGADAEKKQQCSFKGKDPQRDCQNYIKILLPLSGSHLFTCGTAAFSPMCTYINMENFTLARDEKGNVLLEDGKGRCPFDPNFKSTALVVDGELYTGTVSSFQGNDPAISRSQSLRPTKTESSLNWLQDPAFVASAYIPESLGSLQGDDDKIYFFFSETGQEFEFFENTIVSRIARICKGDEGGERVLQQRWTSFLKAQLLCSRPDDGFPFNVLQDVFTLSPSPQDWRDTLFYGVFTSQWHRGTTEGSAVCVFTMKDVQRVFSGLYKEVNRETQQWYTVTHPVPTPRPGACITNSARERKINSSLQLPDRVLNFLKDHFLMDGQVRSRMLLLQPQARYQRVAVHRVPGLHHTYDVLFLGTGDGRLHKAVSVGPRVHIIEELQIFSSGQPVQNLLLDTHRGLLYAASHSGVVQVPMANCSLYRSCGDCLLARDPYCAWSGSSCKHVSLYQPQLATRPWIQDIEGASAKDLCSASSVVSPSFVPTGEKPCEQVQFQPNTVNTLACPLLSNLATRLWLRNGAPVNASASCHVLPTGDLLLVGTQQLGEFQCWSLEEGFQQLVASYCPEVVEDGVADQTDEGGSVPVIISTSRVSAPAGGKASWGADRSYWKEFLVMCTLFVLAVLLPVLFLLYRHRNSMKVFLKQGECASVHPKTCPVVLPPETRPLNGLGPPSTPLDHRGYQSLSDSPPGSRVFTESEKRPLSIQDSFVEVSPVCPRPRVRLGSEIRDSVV

T3: mouse SEMA4A expressed on expi293 cells (UniProt ID Q62178) (mouse, UniProt Q62178 33-760)
T3 construct: Transient transfection in expi293 cells
T3 sequence: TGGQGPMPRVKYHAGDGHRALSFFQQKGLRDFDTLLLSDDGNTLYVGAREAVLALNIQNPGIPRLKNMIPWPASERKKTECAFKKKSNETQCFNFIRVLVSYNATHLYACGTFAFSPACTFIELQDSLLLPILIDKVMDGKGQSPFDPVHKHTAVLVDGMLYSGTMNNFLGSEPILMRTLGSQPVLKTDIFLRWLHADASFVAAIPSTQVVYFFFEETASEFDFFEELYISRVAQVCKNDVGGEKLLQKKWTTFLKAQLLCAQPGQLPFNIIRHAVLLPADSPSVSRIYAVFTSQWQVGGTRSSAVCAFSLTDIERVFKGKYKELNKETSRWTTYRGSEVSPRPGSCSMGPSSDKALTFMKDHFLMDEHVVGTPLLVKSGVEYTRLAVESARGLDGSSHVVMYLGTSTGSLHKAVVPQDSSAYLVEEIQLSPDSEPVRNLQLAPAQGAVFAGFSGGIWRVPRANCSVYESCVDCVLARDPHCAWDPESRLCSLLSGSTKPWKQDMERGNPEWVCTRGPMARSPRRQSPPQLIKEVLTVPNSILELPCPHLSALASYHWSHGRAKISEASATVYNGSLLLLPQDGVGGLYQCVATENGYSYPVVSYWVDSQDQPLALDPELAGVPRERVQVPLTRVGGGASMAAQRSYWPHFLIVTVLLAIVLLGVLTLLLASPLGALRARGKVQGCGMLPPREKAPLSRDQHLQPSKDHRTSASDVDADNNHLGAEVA

T4: human SEMA4A expressed on cells (UniProt ID Q9H3S1, isoform 1) (human, UniProt Q9H3S1 33-761)
T4 construct: Cell-surface SEMA4A: endogenous on MM.1S, NCI-H929 and Karpas-25 cells, or expi293 cells transfected with Origene SC323738; also called human Semaphorin4A; SEMA4A endogenously expressed on MM.1S cells
T4 sequence: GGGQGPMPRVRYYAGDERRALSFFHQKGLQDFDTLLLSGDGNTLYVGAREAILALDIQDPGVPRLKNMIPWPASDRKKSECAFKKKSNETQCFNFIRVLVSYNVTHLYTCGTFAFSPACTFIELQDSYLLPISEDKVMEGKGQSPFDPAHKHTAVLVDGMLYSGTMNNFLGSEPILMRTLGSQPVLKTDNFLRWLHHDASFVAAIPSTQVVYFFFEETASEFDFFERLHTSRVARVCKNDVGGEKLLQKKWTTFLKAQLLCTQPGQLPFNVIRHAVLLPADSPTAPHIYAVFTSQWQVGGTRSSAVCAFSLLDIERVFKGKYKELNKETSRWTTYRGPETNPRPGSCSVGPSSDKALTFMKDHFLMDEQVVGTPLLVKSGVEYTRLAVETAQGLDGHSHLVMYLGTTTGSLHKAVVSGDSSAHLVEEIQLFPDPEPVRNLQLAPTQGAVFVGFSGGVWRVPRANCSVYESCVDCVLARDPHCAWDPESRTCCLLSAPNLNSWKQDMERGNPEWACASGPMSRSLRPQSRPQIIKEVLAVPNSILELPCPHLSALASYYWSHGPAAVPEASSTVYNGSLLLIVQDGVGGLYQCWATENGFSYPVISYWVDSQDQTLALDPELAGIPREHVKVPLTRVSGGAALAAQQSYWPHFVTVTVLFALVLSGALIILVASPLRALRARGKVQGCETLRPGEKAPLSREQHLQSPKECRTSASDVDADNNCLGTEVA


Legend:
[1] = molecular target: T1, cynomolgus SEMA4A expressed on expi293 …; assay: Mirrorball direct binding, dilution series on expi293 cells transiently transfected with cynomolgus SEMA4A, anti-human Alexa Fluor 647
From the text: (§1) Hits from the primary screening were re-formatted into the human Alya IgG1 vector and re-expressed and purified as described in section 4.1. In addition, a single clone was identified that contained an Asparagine deamidation motif (Asn Gly) within its VHCDR2. This potential sequence liability was de-risked by synthesising de novo two clonal variant VH genes (Asn Ala and Gln Gly) and cloning these sequences into the human Alya IgG1 expression vector. To determine the specificity profile of each purified human Alya IgG1, a dilution series was tested for binding to human SEMA4A, mouse SEMA4A, cyno SEMA4A, human SEMA4B and mock transfected cells (transient transfections set up in expi 293 cells.) The five assays employed methods described in section 2.3, using the appropriate cells and substituting the un-purified scFv periplasmic preparation with the recombinant human Alya IgG1 dilution series. Data was analysed as Count x median mean intensity (x FLU).

[2] = molecular target: T2, human SEMA4B expressed on expi293 cells; assay: Mirrorball direct binding, dilution series on expi293 cells transiently transfected with human SEMA4B, anti-human Alexa Fluor 647
From the text: as §1

[3] = molecular target: T3, mouse SEMA4A expressed on expi293 cells …; assay: Mirrorball direct binding, dilution series on expi293 cells transiently transfected with mouse SEMA4A, anti-human Alexa Fluor 647
From the text: as §1

[4] = molecular target: T4, human SEMA4A expressed on cells …; assay: Mirrorball direct binding, dilution series on expi293 cells transiently transfected with human SEMA4A, anti-human Alexa Fluor 647
From the text: as §1

Binder	binding result [1]	binding result [2]	binding result [3]	binding result [4]
C0120923 (antibody, V domains shown, 239iCys and S442C (EU numbering) in the constant region, one of the 6 germlined clones of m49; purified, unconjugated; also called C0120923 germlined human Alya IgG1) VH: not shown VL: NFMLTQPHSVSESPGKTVTISCTGSGGNIVDNFVQWHQQRPGSSPTTVIYEDDQRPSGVPDRFSASVDSSSNSGSLTISGLKTEDEADYYCQSYDGANRWVFGGGTKLTVL	binds	no binding (tested: log (M) -8 (1e-8 M))	binds	binds
C0120924 (antibody, V domains shown, 239iCys and S442C (EU numbering) in the constant region, one of the 6 germlined clones of m49; purified, unconjugated; also called C0120924 germlined human Alya IgG1) VH: QVQLVQSGAEVKKPGASVKVSCKASGYKLNDPGVHGVSWVRQAPGQGLEWMGWISTLNGDTRYAQKFQGRVTMTTDSSTSTIYMELRSLRSDDTAVYYCARDDYTAIFDFWGQGTLVTVSS VL: SSVLTQPPSVSVAPGQTARITCGGSNIGSQSVHWYQQKPGQAPVLVVYDDSDRPSGIPERFSGSKSGNTATLTISRVEAGDEADYYCQVWDSSTDHHVFGTGTKVTVL	binds	no binding (tested: log (M) -8 (1e-8 M))	binds	binds
C0120920 (antibody, V domains shown, 239iCys and S442C (EU numbering) in the constant region, purified, unconjugated; also called C0120920 human Alya IgG1 (unconjugated)) VH: EVQLVQSGPEVKKPGASVKISCKASGYKLNDPGVHGVSWVRQAPGQGLEWMGWISTLNADTRYAQKFQGRVTMATDSSTSTIYMDLRSLKSDDTALYYCARDDYTAIFDFWGRGTLVTVSS VL: QSVLTQPPSVSVAPGQTASITCGGSNIGSQSVHWYQQKPGQAPVLVVYDDSDRPSGIPERFSGSKSGNTASLILSRVEAGDEADYYCQVWDSSTDHHVFGTGTKVTVL	–	no binding (tested: log (M) -8 (1e-8 M))	binds	binds
C0120921 (antibody, V domains shown, 239iCys and S442C (EU numbering) in the constant region, purified, unconjugated; also called C0120921 human Alya IgG1 (unconjugated)) VH: EVQLVQSGPEVKKPGASVKISCKASGYKLNDPGVHGVSWVRQAPGQGLEWMGWISTLQGDTRYAQKFQGRVTMATDSSTSTIYMDLRSLKSDDTALYYCARDDYTAIFDFWGRGTLVTVSS VL: QSVLTQPPSVSVAPGQTASITCGGSNIGSQSVHWYQQKPGQAPVLVVYDDSDRPSGIPERFSGSKSGNTASLILSRVEAGDEADYYCQVWDSSTDHHVFGTGTKVTVL	–	no binding (tested: log (M) -8 (1e-8 M))	binds	binds
